Results: the Immune Epitope Database (IEDB)

Columns and labels:
HLA-A*02:19 = experiment: IEDB peptide-MHC binding, purified MHC/competitive/fluorescence; filed as Kd, often an IC50 or EC50 that approximates it; ≥ and ≤ were set here for values at or beyond the usual limits of such assays
HLA-A*29:02 = experiment: as above
HLA-B*15:01 = experiment: as above
HLA-B*51:01 = experiment: as above
HLA-B*27:03 = experiment: as above
HLA-A*23:01 = experiment: as above
HLA-A*26:01 = experiment: as above
HLA-A*03:01 = experiment: as above
HLA-A*02:11 = experiment: as above
HLA-A*02:12 = experiment: as above
HLA-B*46:01 [1] = experiment: as above
HLA-B*57:01 = experiment: as above
HLA-B*15:17 = experiment: as above
HLA-A*24:03 = experiment: as above
HLA-B*39:01 = experiment: as above
HLA-B*18:01 = experiment: as above
HLA-A*02:03 = experiment: as above
HLA-A*02:01 = experiment: as above
HLA-A*26:03 = experiment: IEDB peptide-MHC binding, purified MHC/direct/fluorescence; filed as Kd, often an IC50 or EC50 that approximates it; ≥ and ≤ were set here for values at or beyond the usual limits of such assays; conditions: source organism: Burkholderia mallei ATCC 23344
HLA-A*02:16 = experiment: IEDB peptide-MHC binding, purified MHC/competitive/fluorescence; filed as Kd, often an IC50 or EC50 that approximates it; ≥ and ≤ were set here for values at or beyond the usual limits of such assays; conditions: source organism: Shigella dysenteriae Sd197
HLA-B*15:02 = experiment: as above
HLA-A*69:01 = experiment: IEDB peptide-MHC binding, purified MHC/direct/fluorescence; filed as Kd, often an IC50 or EC50 that approximates it; ≥ and ≤ were set here for values at or beyond the usual limits of such assays; conditions: source organism: Burkholderia mallei
HLA-A*31:01 = experiment: as above; conditions: source organism: Burkholderia mallei
HLA-A*68:02 = experiment: as above; conditions: source organism: Burkholderia mallei
HLA-B*46:01 [2] = experiment: as above; conditions: source organism: Burkholderia mallei
HLA-B*48:01 = experiment: as above; conditions: source organism: Burkholderia mallei
HLA-A*11:01 = experiment: as above; conditions: source organism: Burkholderia mallei
HLA-B*40:01 = experiment: as above; conditions: source organism: Burkholderia mallei
HLA-B*07:02 = experiment: as above; conditions: source organism: Burkholderia mallei
HLA-A*02:06 = experiment: IEDB peptide-MHC binding, purified MHC/competitive/fluorescence; filed as Kd, often an IC50 or EC50 that approximates it; ≥ and ≤ were set here for values at or beyond the usual limits of such assays; conditions: source organism: Escherichia coli 536
HLA-A*26:02 = experiment: as above; conditions: source organism: Escherichia coli 536
HLA-B*27:05 = experiment: as above; conditions: source organism: Escherichia coli 536
HLA-A*01:01 = experiment: as above; conditions: source organism: Escherichia coli 536
HLA-C*12:03 = experiment: IEDB peptide-MHC binding, purified MHC/direct/fluorescence; filed as Kd, often an IC50 or EC50 that approximates it; ≥ and ≤ were set here for values at or beyond the usual limits of such assays; conditions: source organism: Francisella tularensis subsp. tularensis FSC198
HLA-B*83:01 = experiment: IEDB peptide-MHC binding, purified MHC/competitive/fluorescence; filed as Kd, often an IC50 or EC50 that approximates it; ≥ and ≤ were set here for values at or beyond the usual limits of such assays; conditions: source organism: Yersinia pestis Nepal516
HLA-B*45:06 = experiment: as above; conditions: source organism: Yersinia pestis Nepal516
HLA-A*68:23 = experiment: as above; conditions: source organism: Yersinia pestis Nepal516
HLA-C*06:02 = experiment: as above; conditions: source organism: Yersinia pestis Nepal516
HLA-A*24:02 = experiment: as above; conditions: source organism: Yersinia pestis Nepal516
HLA-A*32:07 = experiment: as above; conditions: source organism: Yersinia pestis Nepal516
HLA-B*40:13 = experiment: as above; conditions: source organism: Yersinia pestis Nepal516
HLA-A*32:15 = experiment: as above; conditions: source organism: Yersinia pestis Nepal516
HLA-B*58:01 = experiment: as above; conditions: source organism: Yersinia pestis Nepal516
HLA-B*15:42 = experiment: as above; conditions: source organism: Yersinia pestis Nepal516
[3] = source organism: Mycobacterium tuberculosis variant bovis BCG str. Pasteur 1173P2
[4] = source organism: Shigella dysenteriae Sd197
[5] = source organism: Escherichia coli 536
[6] = source organism: Yersinia pestis Nepal516

With AEDLADHHV the Kd (HLA-A*02:19; [3]) was no less than 20 µM, the Kd (HLA-A*29:02; [3]) was no less than 20 µM and the Kd (HLA-B*15:01; [3]) was no less than 20 µM. It also gave a Kd (HLA-B*51:01; [3]) of no less than 20 µM, a Kd (HLA-B*27:03; [3]) of no less than 20 µM and a Kd (HLA-A*23:01; [3]) of no less than 20 µM. The Kd (HLA-A*26:01; [3]) was no less than 20 µM, the Kd (HLA-A*03:01; [3]) was no less than 20 µM and the Kd (HLA-A*02:11; [3]) was 0.0131 µM. It also gave a Kd (HLA-A*02:12; [3]) of no less than 20 µM, a Kd (HLA-B*46:01 [1]; [3]) of no less than 20 µM and a Kd (HLA-B*57:01; [3]) of no less than 20 µM. It also gave a Kd (HLA-B*15:17; [3]) of no less than 20 µM, a Kd (HLA-A*24:03; [3]) of no less than 20 µM and a Kd (HLA-B*39:01; [3]) of no less than 20 µM. It also gave a Kd (HLA-B*18:01; [3]) of no less than 20 µM, a Kd (HLA-A*02:03; [3]) of no less than 20 µM and a Kd (HLA-A*02:01; [3]) of no less than 20 µM.

DIIGGPCAH was tested, and the Kd (HLA-A*26:03) was 2 µM.

IEDDEIIWV gave a Kd (HLA-A*02:19; [4]) of no less than 20 µM, a Kd (HLA-A*29:02; [4]) of no less than 20 µM and a Kd (HLA-B*15:01; [4]) of no less than 20 µM. It also gave a Kd (HLA-B*51:01; [4]) of no less than 20 µM, a Kd (HLA-B*27:03; [4]) of no less than 20 µM and a Kd (HLA-A*02:16) of no less than 20 µM. The Kd (HLA-A*23:01; [4]) was no less than 20 µM, the Kd (HLA-A*26:01; [4]) was no less than 20 µM and the Kd (HLA-A*03:01; [4]) was no less than 20 µM. For the same sequence, the Kd (HLA-A*02:11; [4]) was 0.0002 µM, the Kd (HLA-A*02:12; [4]) was no less than 20 µM and the Kd (HLA-B*46:01 [1]; [4]) was no less than 20 µM. It also gave a Kd (HLA-B*57:01; [4]) of no less than 20 µM, a Kd (HLA-B*15:17; [4]) of no less than 20 µM and a Kd (HLA-A*24:03; [4]) of no less than 20 µM. It also gave a Kd (HLA-B*39:01; [4]) of no less than 20 µM, a Kd (HLA-B*18:01; [4]) of no less than 20 µM and a Kd (HLA-A*02:03; [4]) of no less than 20 µM. For the same sequence, the Kd (HLA-A*02:01; [4]) was no less than 20 µM.

For ILKEYPQVY, the Kd (HLA-B*15:02; source organism: Encephalitozoon cuniculi GB-M1) was 0.155 µM.

KLYPNVDFY showed a Kd (HLA-A*69:01) of no less than 20 µM, a Kd (HLA-A*31:01) of 3.63 µM and a Kd (HLA-A*68:02) of no less than 20 µM. For the same sequence, the Kd (HLA-B*46:01 [2]) was no less than 20 µM, the Kd (HLA-B*48:01) was no less than 20 µM and the Kd (HLA-A*11:01) was 0.225 µM. It also gave a Kd (HLA-B*40:01) of no less than 20 µM, a Kd (HLA-B*07:02) of no less than 20 µM and a Kd (HLA-B*15:01; [5]) of 0.107 µM. For the same sequence, the Kd (HLA-A*02:06) was 1.6 µM, the Kd (HLA-A*26:01; [5]) was no less than 20 µM and the Kd (HLA-A*26:02) was no less than 20 µM. It also gave a Kd (HLA-B*27:05) of no less than 20 µM, a Kd (HLA-B*15:17; [5]) of 0.207 µM and a Kd (HLA-B*18:01; [5]) of no less than 20 µM. For the same sequence, the Kd (HLA-A*02:01; [5]) was no less than 20 µM and the Kd (HLA-A*01:01) was 3.47 µM.

Work on MIYNSFNPY yielded a Kd (HLA-C*12:03) of no less than 20 µM and a Kd (HLA-B*15:02; source organism: Francisella tularensis subsp. tularensis FSC198) of no less than 20 µM.

Work on MLYPLLWMF yielded a Kd (HLA-B*15:01; [6]) of 0.406 µM, a Kd (HLA-B*83:01) of no less than 5 µM and a Kd (HLA-B*45:06) of no less than 5 µM. It also gave a Kd (HLA-A*68:23) of 0.968 µM, a Kd (HLA-C*06:02) of 3.57 µM and a Kd (HLA-A*24:02) of 0.0377 µM. For the same sequence, the Kd (HLA-A*32:07) was 0.599 µM, the Kd (HLA-B*40:13) was 3.5 µM and the Kd (HLA-A*02:01; [6]) was 0.169 µM. For the same sequence, the Kd (HLA-A*32:15) was 0.155 µM, the Kd (HLA-B*58:01) was 2.06 µM and the Kd (HLA-B*15:42) was no less than 5 µM.
